Source: paper doi:10.1101/2024.10.06.616194

Measured: catalytic (cyclization) activity of the GpeC mutant relative to the wild type

WFWMLYHHM [SGpeA2 (minimal 9-mer substrate)]
> 50%: GpeC R160A | GpeC F214A | GpeC R152A | GpeC Y163A
